Results on 13 molecules are retold here after patent publication US20110293610A1 (published 2011).

The labels stand for the following.
B1: I061E07 (scFv)
scFv: QVQLQQSGAEVKKTGASVKVSCKASGYIFADYYVHWVRQAAGQGLEWMGWINPNTGSTKYAQKFQDRVTMTRDTSIKTVYMELRRLRSDDTALYYCARATYDPLTGYSFDGFDIWGKGTMVTVSSGGGGSGGGGSGGGGSQSVLTQPPSASGTPGQRVTISCSGSSSNIGSNTVNWYQRLPGAAPQLLIYNNDQRPSGIPDRFSGSKSGTSGSLVISGLQSEDEADYYCASWDDSLNGRVFGGGTKLTVLG
B2: I006D07 (scFv)
scFv: EVQLVESGGGVVQPGGSLRLSCAASGFTVNSYAMHWVRQAPGKGLQWVAVIPYDGSKKYYADSVKGRFTVSRDNSKNTLYLQMNSLRAEDTAVYYCARSHYDILTGLNYWYFDLWGRGTLVTVSSGGGGSGGGGSGGGGSSELTQDPAVSVALGQTVRITCQGDSLRSYYASWYQQKPGQAPVLVIYGKNNRPSGIPDRFSGSSSGNTASLTITGAQAEDEADYYCNSRGSSGNHVVFGGGTKLTVLG
B3: I008B01 (scFv)
scFv: QVQLVQSGAEVMKPGASVKVSCKASGYNFNNYAMQWVRQAPGQRLEWMGWIVPGNGKTKYSQKFQDRVTIARDTSASTVYMELSSLTSEDTAMYYCARATYDPLTGYSFDGFDIWGQGTTVTVSSGGGGSGGGGSGGGGSQSVLTQPASVSGSPGQSITISCTGTSSDVGGYNYVSWYQQHPGKAPKLMIYEGSKRPSGVSNRFSGSKSGNTASLTISGLQAEDEADYYCSSYTTRSTRVFGGGTKLTVLG
B4: I008C02 (scFv)
scFv: AVQLQESGPGLVKPSETLSLTCSVSGASMTTNKFYWSWIRQPPGKGLEWIGNINYSKSTNYNPSLKSRITISVDTSKNQLSLKLNSVTAADTAVYYCARHVRDYDILTGYYRGHYFDYWGQGTMVTVSSGGGGSGGGGSGGGGSQSVLTQPASVSGSPGQSITISCTGTSSDVGGYNYVSWYQQHPGKAPKLMIYEGSKRPSGVSNRFSGSKSGNTASLTISGLQAEDEADYYCSSYTTRSTRVFGGGTKLTVLG
B5: I016E05 (scFv)
scFv: QVQLQQSGAEVKKPGASVKVSCKASGYTFTKYTMHWVRQAPGQGPEWMGWINGGSGDTKYSRKFQGRVTITKDTSASAAYMELSSLGSEDTALYYCARATYDPLTGYSFDGFDIWGKGTMVTVSSGGGGSGGGGSGGGGSQSALTQPASVSGSPGQSITISCTGTSSDVGGYNYVSWYQQHPGKAPKLMIYEGSKRPSGVSNRFSGSKSGNTASLTISGLQAEDEADYYCSSYTTRSTRVFGGGTKLTVLG
B6: I018H09 (scFv)
scFv: B5 scFv with A79T, A143V
B7: I018H08 (scFv)
scFv: B5 scFv with K19N, K117Q, A143V, V249I
notes: also called 1018H08
B8: I022E02 (scFv)
scFv: QVQLVQSGAEVKKPGASVMVSCKASGYTFSTYAVHWVRQAPGQGLEWMGRINAGNGYTKYSQKFQGRVTITKDTSASAAYMELSSLGSEDTALYYCARATYDPLTGYSFDGLDIWGKGTMVTVSSGGGGSGGGGSGGGGSQSVLTQPASVSGSPGQSITISCTGTSSDVGGYNYVSWYQQHPGKAPKLMIYEGSKRPSGVSNRFSGSKSGNTASLTISGLQAEDEADYYCSSYTTRSTRVFGGGTKLTVLG
B9: I018C02 (scFv)
scFv: QVQLQQSGSELKKPGASVIVSCKVSGYSLTKMSMHWVRQSPGEGLEWVGGIDPETRQPVYAQKFQGRVTITKDTSASAAYMELSSLGSEDTALYYCARATYDPLTGYSFDGFDIWGQGTLVTVSSGGGGSGGGGSGGGGSQSVLTQPASVSGSPGQSITISCTGTSSDVGGYNYVSWYQQHPGKAPKLMIYEGSKRPSGVSNRFSGSKSGNTASLTISGLQAEDEADYYCSSYTTRSTRVFGGGTKLTVLG
B10: I029D07 (scFv)
scFv: QVQLQQSGAEVKKPGSSVKVSCKASGYTFTKYTMHWVRQAPGQGPEWMGWINGGSGDTKYSRKFQGRVTITKDTSASAAYMELSSLGSEDTALYYCARATYDPLTGYSFDGFDIWGQGTLVTVSSGGGGSGGGGSGGGGSQSVLTQPASVSGSPGQSITISCTGTSSDVGGYNYVSWYQQHPGKAPKLMIYDVSKRPSGVPDRFSGSKSGNTASLTISGLQAEDEGDYYCSSYAGPSRVFGGGTKVEIKR
B11: I001C09 (scFv)
scFv: GVQLVQSGPEVKKPGASVKVSCTASGYTFTSYGVSWVRQAPGQGLEWIGWISAHNGQTKYAEKFQGRVTMTRNTSISTAYMELSSLRSEDTAVYYCARDGSYDILTGYYIDNYMDVWGKGTMVTVSSGGGGSGGGGSGGGGSSELTQDPAVSVALGQTVRITCQGDSLRSYYTNWFQQKPGQAPLLVVYAKNKRPSGIPDRFSGSSSGNTASLTITGAQAEDEADYYCHSRDSSGNHVLFGGGTKLTVLG
B12: I018D07 (scFv)
scFv: B11 scFv with K19I
B13: I003F12S (scFv)
scFv: QVQLLQSAAELKKPGQSLKISCKGSGFTFTTYWIGWVRQLPGKGLEWMGIIYPGDSHTTYSPSFEGHVNISVDKSINTAYLQWSSLKASDTAMYYCARHDDDVLTGYYFESWGQGTMVTVSSGGGGSGGGGSGGGGSQSVLTQPASVSGSPGQSITISCTGTSSDVGGYNYVSWYQQHPGKAPKLMIYEGSKRPSGVSNRFSGSKSGNTASLTISGLQAEDEADYYCSSYTTRSTRVFGGGTKLTVLG

Changes are numbered by the printed parent chain.

T6 sequence (P50591 114-281 limits assumed): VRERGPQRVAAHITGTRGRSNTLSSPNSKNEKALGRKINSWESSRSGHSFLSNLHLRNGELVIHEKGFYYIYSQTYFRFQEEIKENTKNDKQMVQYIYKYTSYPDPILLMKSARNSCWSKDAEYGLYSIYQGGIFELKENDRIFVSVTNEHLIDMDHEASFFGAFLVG

In one experiment the target is T1, B Lymphocyte Stimulator, soluble form (human) (human, UniProt Q9Y275 134-285, biotinylated with NHS-biotin where used as biotinylated B Lymphocyte Stimulator).
T1 construct: Coated on plastic, captured on streptavidin plates, amine-coupled to a CM5 chip or free in solution, depending on the assay; also called BLyS; immobilized B Lymphocyte Stimulator
In words: phage competition ELISA.
As for B1, the binding result is recorded as “binds”.

As for B2, the binding result is on record as “binds”.

B3: the binding result is “binds”.

Consider B4, for which the binding result was “binds”.

Consider B5, for which the binding result was “binds”.

B6: the binding result is “binds”.

B7: the binding result is given as “binds”.

For B8, the binding result is “binds”.

As to B9, the binding result is “binds”.

Consider B10, for which the binding result was “binds”.

For the molecule B11, the binding result is recorded as “binds”.

As to B12, the binding result was “binds”.

The target of a further experiment is T2, TNF-alpha (human, UniProt P01375 77-233).
T2 construct: also called TNFα; TNF-α
T2 sequence (P01375 77-233 limits assumed): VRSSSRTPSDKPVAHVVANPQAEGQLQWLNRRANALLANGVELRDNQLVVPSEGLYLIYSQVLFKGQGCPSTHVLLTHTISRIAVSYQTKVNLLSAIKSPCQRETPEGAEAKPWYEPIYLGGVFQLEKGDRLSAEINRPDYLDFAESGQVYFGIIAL
In words: phage ELISA. (In an ELISA, binding on a coated surface is turned into a signal by an enzyme label.)
As for B1, the binding result was “no binding”.

As for B2, the binding result is on record as “no binding”.

For the molecule B3, the binding result is listed as “no binding”.

Turning to B13, the binding result is on record as “no binding”.

On to B4, for which the binding result is “no binding”.

B5: the binding result is listed as “no binding”.

For B6, the binding result was “no binding”.

As to B7, the binding result was “no binding”.

As for B8, the binding result was “no binding”.

For the molecule B9, the binding result was “no binding”.

For the molecule B10, the binding result is on record as “no binding”.

Another experiment concerns the target T3, TNF-beta (human, UniProt P01374 35-205).
T3 construct: also called TNFβ; Tumour Necrosis Factor-beta
T3 sequence (looked up): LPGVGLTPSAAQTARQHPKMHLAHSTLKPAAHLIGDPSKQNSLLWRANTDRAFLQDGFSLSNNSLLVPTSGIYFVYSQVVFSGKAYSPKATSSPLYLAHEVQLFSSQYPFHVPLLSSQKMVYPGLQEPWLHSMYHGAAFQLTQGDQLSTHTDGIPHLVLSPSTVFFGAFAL
Nature of the experiment: phage ELISA.
With B1, the binding result is recorded as “no binding”.

For the molecule B2, the binding result is listed as “no binding”.

In the case of B3, the binding result is reported as “no binding”.

B13: the binding result is reported as “no binding”.

On to B4, for which the binding result is listed as “no binding”.

With B5, the binding result is on record as “no binding”.

Turning to B6, the binding result is “no binding”.

With B7, the binding result is recorded as “no binding”.

Consider B8, for which the binding result is given as “no binding”.

With B9, the binding result is “no binding”.

As to B10, the binding result is listed as “no binding”.

B11: the binding result was “no binding”.

Consider B12, for which the binding result is “no binding”.

In a further experiment the target is T4, membrane-bound B Lymphocyte Stimulator on U937 plasma membrane preparations (human, UniProt Q9Y275 1-285).
T4 construct: Natural protein in plasma membrane fractions of the human cell line U937 coated on ELISA plates; also called U937 plasma membranes; U937 membranes
In words: phage ELISA.
For the molecule B1, the binding result was “binds”.

For B2, the binding result is “binds”.

For B3, the binding result was “binds”.

On to B4, for which the binding result is “binds”.

B5: the binding result is on record as “binds”.

In the case of B6, the binding result is reported as “binds”.

With B7, the binding result is on record as “binds”.

In the case of B8, the binding result is listed as “binds”.

Consider B9, for which the binding result is reported as “binds”.

B10: the binding result is “binds”.

Take B11: the binding result is given as “binds”.

B12: the binding result is “binds”.

Another experiment deals with T5, Fas ligand (human, UniProt P48023 134-281, limits assumed).
T5 sequence (looked up): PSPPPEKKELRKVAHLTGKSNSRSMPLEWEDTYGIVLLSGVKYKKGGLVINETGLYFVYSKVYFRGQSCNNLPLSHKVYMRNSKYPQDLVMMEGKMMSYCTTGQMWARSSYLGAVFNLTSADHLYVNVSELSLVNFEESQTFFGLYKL
In words: phage ELISA.
B1: the binding result is “no binding”.

With B2, the binding result is “no binding”.

On to B3, for which the binding result is recorded as “no binding”.

Turning to B13, the binding result was “no binding”.

B4: the binding result was “no binding”.

On to B5, for which the binding result was “no binding”.

Consider B6, for which the binding result is recorded as “no binding”.

With B7, the binding result is reported as “no binding”.

Consider B8, for which the binding result is reported as “no binding”.

As to B9, the binding result is on record as “no binding”.

As for B10, the binding result is reported as “no binding”.

For the molecule B11, the binding result is given as “no binding”.

Turning to B12, the binding result is on record as “no binding”.

The next experiment concerns the target T6, TRAIL (human, UniProt P50591 114-281).
T6 construct: also called TNF-related apoptosis inducing ligand
Nature of the experiment: phage ELISA.
In the case of B1, the binding result is “no binding”.

Take B2: the binding result is given as “no binding”.

Consider B3, for which the binding result is “no binding”.

In the case of B13, the binding result is “no binding”.

For the molecule B4, the binding result is recorded as “no binding”.

B5: the binding result is “no binding”.

For the molecule B6, the binding result is recorded as “no binding”.

Consider B7, for which the binding result is listed as “no binding”.

In the case of B8, the binding result is “no binding”.

Take B9: the binding result is given as “no binding”.

With B10, the binding result is “no binding”.

On to B11, for which the binding result was “no binding”.

For the molecule B12, the binding result is “no binding”.
